Source: paper PMC8446801, “Coiled-coil binding of the leucine zipper domains of APOL1 is necessary for the open cation channel conformation” (The Journal of Biological Chemistry, 2021)

Legend:
APOL1 G0 (human) = APOL1 G0 (human) (UniProt O14791)
[1] = target: the molecule itself; assay: cross-linking; untreated control protein (lane c): thawed on ice from -80 °C and immediately diluted into SDS sample buffer; nonreducing SDS-PAGE, silver stain
APOL1 LZA 1 (human) = APOL1 LZA 1 (human) (UniProt O14791)
[2] = target: the molecule itself; assay: cross-linking; disulfide trapping between substituted cysteines, no membranes; protein (~0.159 uM) in 0.2 ml buffer (5 mM succinate, 5 mM Hepes, 0.5 mM KCl, 5 mM CaCl2), room temperature, 1 h at pH 5.6 followed by 1 h at pH 7.2; nonreducing SDS-PAGE, silver stain

B1: APOL1 G0 (natural protein)
chain: EEAGARVQQNVPSGTDTGDPQSKPLGDWAAGTMDPESSIFIEDAIKYFKEKVSTQNLLLLLTDNEAWNGFVAAAELPRNEADELRKALDNLARQMIMKDKNWHDKGQQYRNWFLKEFPRLKSKLEDNIRRLRALADGVQKVHKGTTIANVVSGSLSISSGILTLVGMGLAPFTEGGSLVLLEPGMELGITAALTGITSSTIDYGKKWWTQAQAHDLVIKSLDKLKEVKEFLGENISNFLSLAGNTYQLTRGIGKDIRALRRARANLQSVPHASASRPRVTEPISAESGEQVERVNEPSILEMSRGVKLTDVAPVSFFLVLDVVYLVYESKHLHEGAKSETAEELKKVAQELEEKLNILNNNYKILQADQEL
trypanosome lysis (T. b. brucei, 24 h), IC50 (APOL1 G0 (human)): 0.125 mg/L

B2: APOL1 LZA A375C (natural protein, human, UniProt O14791 28-398, looked up)
chain: EEAGARVQQNVPSGTDTGDPQSKPLGDWAAGTMDPESSIFIEDAIKYFKEKVSTQNLLLLLTDNEAWNGFVAAAELPRNEADELRKALDNLARQMIMKDKNWHDKGQQYRNWFLKEFPRLKSKLEDNIRRLRALADGVQKVHKGTTIANVVSGSLSISSGILTLVGMGLAPFTEGGSLVLLEPGMELGITAALTGITSSTIDYGKKWWTQAQAHDLVIKSLDKLKEVKEFLGENISNFLSLAGNTYQLTRGIGKDIRALRRARANLQSVPHASASRPRVTEPISAESGEQVERVNEPSILEMSRGVKLTDVAPVSFFLVLDVVYLVYESKHLHEGAKSETAEEAKKVCQEAEEKLNIANNNYKIAQADQEL
notes: Apolipoprotein L-I (APOL1) G0, human, aa 28-398, isoform K150, I228, K255 (GenBank AAI12944.2), every d position leucine of the ZIP domain to alanine plus A375C; Disulfide dimers were already present in the starting material (formed during purification); source: E. coli BL21-DE3-RIPL, purified (nickel-chelate chromatography, SEC); not shown: His6, N-terminal, kept
stoichiometry N [1]: 2

B3: APOL1 LZA 1 (natural protein)
chain: EEAGARVQQNVPSGTDTGDPQSKPLGDWAAGTMDPESSIFIEDAIKYFKEKVSTQNLLLLLTDNEAWNGFVAAAELPRNEADELRKALDNLARQMIMKDKNWHDKGQQYRNWFLKEFPRLKSKLEDNIRRLRALADGVQKVHKGTTIANVVSGSLSISSGILTLVGMGLAPFTEGGSLVLLEPGMELGITAALTGITSSTIDYGKKWWTQAQAHDLVIKSLDKLKEVKEFLGENISNFLSLAGNTYQLTRGIGKDIRALRRARANLQSVPHASASRPRVTEPISAESGEQVERVNEPSILEMSRGVKLTDVAPVSFFLVLDVVYLVYESKHLHEGAKSETAEEAKKVAQELEEKLNILNNNYKILQADQEL
trypanosome lysis (T. b. brucei, 24 h), IC50 (APOL1 LZA 1 (human)): 0.6 mg/L

B4: APOL1 A363C (natural protein, human, UniProt O14791 28-398, looked up)
chain: EEAGARVQQNVPSGTDTGDPQSKPLGDWAAGTMDPESSIFIEDAIKYFKEKVSTQNLLLLLTDNEAWNGFVAAAELPRNEADELRKALDNLARQMIMKDKNWHDKGQQYRNWFLKEFPRLKSKLEDNIRRLRALADGVQKVHKGTTIANVVSGSLSISSGILTLVGMGLAPFTEGGSLVLLEPGMELGITAALTGITSSTIDYGKKWWTQAQAHDLVIKSLDKLKEVKEFLGENISNFLSLAGNTYQLTRGIGKDIRALRRARANLQSVPHASASRPRVTEPISAESGEQVERVNEPSILEMSRGVKLTDVAPVSFFLVLDVVYLVYESKHLHEGCKSETAEELKKVAQELEEKLNILNNNYKILQADQEL
notes: Apolipoprotein L-I (APOL1) G0, human, aa 28-398, isoform K150, I228, K255 (GenBank AAI12944.2); Cysteine in the predicted turn region between the pore-lining region and the ZIP domain, outside the ZIP domain; source: E. coli BL21-DE3-RIPL, purified (nickel-chelate chromatography, SEC); not shown: His6, N-terminal, kept
binding result [2]: binds

B5: APOL1 A375C (natural protein, human, UniProt O14791 28-398, looked up)
chain: EEAGARVQQNVPSGTDTGDPQSKPLGDWAAGTMDPESSIFIEDAIKYFKEKVSTQNLLLLLTDNEAWNGFVAAAELPRNEADELRKALDNLARQMIMKDKNWHDKGQQYRNWFLKEFPRLKSKLEDNIRRLRALADGVQKVHKGTTIANVVSGSLSISSGILTLVGMGLAPFTEGGSLVLLEPGMELGITAALTGITSSTIDYGKKWWTQAQAHDLVIKSLDKLKEVKEFLGENISNFLSLAGNTYQLTRGIGKDIRALRRARANLQSVPHASASRPRVTEPISAESGEQVERVNEPSILEMSRGVKLTDVAPVSFFLVLDVVYLVYESKHLHEGAKSETAEELKKVCQELEEKLNILNNNYKILQADQEL
notes: Apolipoprotein L-I (APOL1) G0, human, aa 28-398 (without the signal peptide), most common isoform K150, I228, K255 (GenBank AAI12944.2); Cysteine at the a position of the C-terminal leucine zipper (ZIP) domain; APOL1 has no endogenous cysteines; Stored with 1 mM DTT in the SEC buffer; also called apolipoprotein L-I A375C; source: E. coli BL21-DE3-RIPL, purified (nickel-chelate chromatography, …)
stoichiometry N [2]: 2
